From article PMC4595432 come the findings set out here.

This assay addresses DnaA fused to the N-terminal domain of the phage 434 repressor (pcI434-dnaA) (E. coli K12) (UniProt P03004). As to the kind of experiment: two-hybrid; bacterial two-hybrid system in E. coli R721 (434-P22 chimeric operator upstream of lacZ); fusions to the N-terminal domains of the 434 and P22 repressors; β-galactosidase in Miller units, cultures at A600 0.5 in LB with 0.1 mM IPTG; an interaction lowers the activity and is scored positive when the ratio to R721 is below 0.5.

For the substance “HtpG fused to the N-terminal domain of the phage P22 repressor (pcIP22-htpG) (from UniProt P0A6Z3 1-624) (natural protein)”, the ratio β-galactosidase activity tested strain/R721 was found to be 0.19 and the β-galactosidase activity was 1070 Miller units.
